For series [1], the system named is hematopoiesis. In words: Carboplatin-induced myelosuppression in mice. It counts as in vivo, mouse. Here is the method: (§1) For xenograft models, the NSG mice and BALB/c mice were subcutaneously injected with 2×10^6 viable MDA-MB-231 cells and TUBO cells in their right hind limbs, respectively. After the tumor grew to 1 cm in diameter, mice were randomly divided into the groups for each treatment. For no treatment control, 100 μl saline with 1% mouse serum was intravenously injected through tail vein. For treatment groups, 670 pmol/20 g chimeras and/or 5(0 mg/kg 5-fluorouracil (5-FU), or 120 mg/kg carboplatin were also intravenously injected. Tumor sizes were measured in two dimensions every 3 days. Tumor volume (V) was calculated using the following formula: V=(½) S^2×L (S. the shortest dimension; L, the longest dimension). Animals were euthanized when the tumor size was over 2 cm diameters, tumor ulcerated, or became necrotic. For chimera treatment in normal mice, C57BL/6 mice were treated with miR-26a chimera (670 pmol/20 g) everyday for 3 days by intravenous injection. At day 2, 150 mg/kg 5-FU and/or 120 mg/kg carboplatin was injected together with the chimera. Peripheral bloods were collected at day 5 and day 10 after the 5-FU treatment. Complete blood counts were measured by Hemavet 950FS (Drew Scientific, Miami Lakes, Fla., USA).

The subject of series [2] is MDA-MB-231 cells. In words: miR-26a delivery into MDA-MB-231 cells, qPCR. The format is cell-based, human. The conditions noted are these: two days after incubation, compared to control chimera. From the text: Total RNAs from cell lines and mouse tissues were extracted by RNeasy Plus Mini kit (Qiagen, Valencia, Calif., USA). miR-26a levels were quantified by Taqman microRNA assay (assay ID; 000405) that covered both has-miR-26a-5p and mmu-miR-26a-5p (Thermo Fisher Scientific) according to manufacturer's protocol. U6 snRNA (Taqman microRNA assay, assay ID; 001973) was used as endogenous control. For qPCR of other genes, cDNAs were synthesized from the purified total RNA with qScript cDNA supermix (Quanta Bio, Gaithersburg, Md., USA). Real-time PCR was performed with Power SYBR Green PCR master mix (Thermo Fisher Scientific) on 7500 Real Time PCR system (Thermo Fisher Scientific). Sequence primers for mouse Bak were […] (forward) (SEQ ID NO: 11) and […] (reverse) (SEQ ID NO:12). For mouse Ezh2, […] (forward) (SEQ ID NO:13) and […] (reverse) (SEQ ID NO:14). For mouse Actb, […] (forward) (SEQ ID NO:15) and […] (reverse) (SEQ ID NO:16) were used as endogenous control.
(In qPCR the cycle at which signal appears reflects the starting amount.)

Series [3] has as its system MDA-MB-231 cells. Kind of series: Growth and apoptosis of MDA-MB-231 cells cultured with chimera. The format is cell-based, human. The following applies: 3 days of culture. From the text:
FIG. 1A-FIG. 1H show identification and validation of KIT-targeting miR-26a chimera that inhibits human breast cancer growth in vitro and in vivo. FIG. 1A is a graph showing the overall survival of basal-like breast cancer patients with higher or lower expression of miR-26a-2 based on the expression scores comparing to the mean value in TCGA cohort. FIG. 1B is a graph showing the binding of anti-KIT antibody and KIT DNA aptamer to MDA-MB-231 cell line. Other cell targeting aptamer is specific for Ramos cells. FIG. 1C depicts the secondary structure of KIT aptamer-miR-26a chimera. KIT DNA aptamer was linked with C3 linker to RNA passenger sequence that was complimentary binds to miR-26a mimic sequence. Another RNA passenger sequence binding to the 3′ of miR-26 mimic was conjugated with TEG-cholesterol. FIG. 1D is a graph showing specific miR-26a delivery by the miR-26a chimera. […] After 3 days of culture with miR-26a chimera or control chimera, MDA-MB-231 cell numbers (left) were counted using hemocytometer and Annexin V positive cells (%) (right) was determined by flow cytometry. […]
For aptamer binding assay, streptavidin-APC (Cat #554067) […] Bioscience, San Jose, Calif., USA) was used for detecting the biotin-conjugated aptamers by flow cytometry. […] Flow cytometry analysis was performed on FACS Canto II (BD Bioscience) and the data were analyzed with FlowJo (FLOWJO, Ashland, Oreg., USA). […]

The test system of series [4] is EZH2 protein. Kind of series: EZH2 immunoblot in chimera-treated MDA-MB-231 cells. It counts as cell-based, human. The conditions noted are these: 167 nM chimeras for 2 days. Here is the method:
The cell lysate from MDA-MB-231 cells treated with 167 nM chimeras for 2 days were fractionated by SDS-PAGE and then transferred to PVDF membrane (EMD Millipore, Billerica, Mass., USA). Following blocking with 5% FBS in tris-buffered saline, the membrane was incubated with primary antibody against EZH2 (D2C2) and Histone H3 (Cat #9715) (Cell Signaling Technologies, Danvers, Mass., USA) overnight at 4° C. and then incubated with horseradish peroxidase-conjugated anti-mouse and rabbit IgGs (Thermo Fisher Scientific) for 1 hr. respectively. The antigen-antibody immunoreactivity was detected in ChemiDoc Touch Imaging System (Bio-Rad Hercules, Calif., USA) using SuperSignal West Pico Chemiluminescent Substrate (Thermo Fisher Scientific).
A general note: A western blot detects proteins with antibodies after separation by electrophoresis.

For series [5], the system named is MDA-MB-231 xenograft tumors. In words: MDA-MB-231 xenograft in NSG mice. The format is in vivo, mouse.
Source text: Xenograft model were generated 8-weeks old female immune-deficient NOD-scid IL2Rgamma^null (NSG™, Jackson Laboratories, Bar Harbar, Me., USA) using human breast cancer cell line. Syngeneic TUBO tumors were established in 8-weeks old female BALB/c mice (from Charles River Animal Facility, Frederick, Md., USA). These tumor-bearing mice were randomly assigned to each treatment group. Eight-week old male C57BL/6 mice and C57BL/6 ly5.2 mice (from Charles River Animal Facility, Frederick, Md., USA) were used for bone marrow transplantation assay. The mouse groups assigned for each treatment were not blinded. No statistical methods were used to pre-determined sample size for the analysis of mouse experiments. All the mice were maintained in the Research Animal Facility at Children's National Institute, Children's National Medical Center. The committee on the Use and Care of Animal at Children's National Institute approved all procedures involving experimental animals.
as §1

Results on two molecules are retold here after patent US20200171068A1, “COMPOSITIONS COMPRISING APTAMERS AND NUCLEIC ACID PAYLOADS AND METHODS OF USING THE SAME” (Children's National Medical Center, priority 2017, published 2020).

“Also recorded” adds a separate entry of the source. [C3] = C3 (propyl) spacer linking the 3' end of the DNA aptamer to the passenger RNA

On to `N.N.O=C([O-])C1(C(=O)[O-])CCC1.[Pt+2]` [carboplatin, reference compound], for which the “red blood cells after carboplatin” value in series [1] (day 10) is reported as “reduction of red blood cells was also observed”. Moreover, in series [1] (single high dose of carboplatin, day 5, compared with vehicle), the “hematopoiesis: WBC and platelet counts after carboplatin” value is “significant defects in hematopoiesis; also recorded: significantly reduced WBC and platelet counts”.

B1: KIT-targeting miR-26a chimera: anti-human KIT DNA aptamer-C3-passenger RNA, passenger RNA-TEG-cholesterol and miR-26a-5p guide strand annealed (SEQ ID NO:4/5, 8, 9) (nucleic acid)
chain 1: GAGGCATACCAGCTTATTCAAGGGGCCGGGGCAAGGGGGGGGTACCGTGGTAGGACATAGTAAGTGCAATCTGCGAA
chain 2: CCUAUUCUGG
chain 3: GUUACUUGCACG
guide: UUCAAGUAAUCCAGGAUAGGCU
modifications: chain 1: DNA, 3' [C3], backbone not given here; chain 2: chemistry not given here; chain 3: chemistry not given here; guide: chemistry not given here; DNA aptamer joined by C3 spacer to passenger RNA, annealed three-part chimera
On to B1, for which the “miR-26a expression in the MDA-MB-231 cells” value in series [2] is given as “significant increase; also recorded: successfully delivered miR-26a”. For the same molecule, the “Annexin V positive cells (apoptosis) of MDA-MB-231 cells” value in series [3] (flow cytometry) is “induced apoptosis; also recorded: induction of apoptosis”. Besides, the “MDA-MB-231 cell numbers (growth)” value in series [3] (hemocytometer) is given as “suppressed the growth; also recorded: inhibited cell growth”. The EZH2 protein expression result in series [4] is “significant suppression; also recorded: significantly suppressed”. Also, the “tumor growth (tumor volume)” value in series [5] (5 or 10 daily intravenous injections, 670 pmol/20 g) is “significantly suppressed the tumor growth”. The survival entry in series [5] (5 or 10 daily intravenous injections, 670 pmol/20 g, log-rank test vs control chimera) was “extended their survival”. The “miR-26a in KIT+ tumor cells” value in series [5] (NSG mice, MDA-MB-231 tumor, 3 days after intravenous injection 670 pmol/20 g, qPCR) is listed as “Significant increase; also recorded: significant elevation”. Besides, the “miR-26a in KIT tumor cells (KIT-negative population)” value in series [5] (NSG mice, MDA-MB-231 tumor, 3 days after single injection, qPCR) was “No increase”.
